T1: muCDH19(44-461)::huCDH19(464-772) (human/mouse chimera)
T1 construct: also called Hu EC5
T1 chain: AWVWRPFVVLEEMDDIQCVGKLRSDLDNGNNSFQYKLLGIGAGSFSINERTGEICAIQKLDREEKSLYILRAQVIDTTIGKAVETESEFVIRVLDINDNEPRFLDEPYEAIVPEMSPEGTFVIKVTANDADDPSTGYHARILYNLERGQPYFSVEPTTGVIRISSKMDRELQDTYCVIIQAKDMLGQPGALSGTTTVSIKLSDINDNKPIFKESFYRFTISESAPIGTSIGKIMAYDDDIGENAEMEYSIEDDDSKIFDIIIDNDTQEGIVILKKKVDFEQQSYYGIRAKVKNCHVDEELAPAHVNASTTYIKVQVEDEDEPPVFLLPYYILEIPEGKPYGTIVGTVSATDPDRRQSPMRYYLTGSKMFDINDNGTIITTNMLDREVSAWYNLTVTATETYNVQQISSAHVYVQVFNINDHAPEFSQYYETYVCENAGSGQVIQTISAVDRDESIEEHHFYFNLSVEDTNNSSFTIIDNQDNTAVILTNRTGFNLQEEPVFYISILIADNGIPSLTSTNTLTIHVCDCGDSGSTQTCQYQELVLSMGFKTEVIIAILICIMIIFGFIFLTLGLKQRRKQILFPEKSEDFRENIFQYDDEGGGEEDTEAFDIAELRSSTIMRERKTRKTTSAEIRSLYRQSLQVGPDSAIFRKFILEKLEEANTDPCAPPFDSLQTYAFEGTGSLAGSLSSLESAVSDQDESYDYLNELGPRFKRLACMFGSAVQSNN

T2: muCDH19(44-362)::huCDH19(365-772) (human/mouse chimera)
T2 construct: also called Hu EC4-5
T2 chain: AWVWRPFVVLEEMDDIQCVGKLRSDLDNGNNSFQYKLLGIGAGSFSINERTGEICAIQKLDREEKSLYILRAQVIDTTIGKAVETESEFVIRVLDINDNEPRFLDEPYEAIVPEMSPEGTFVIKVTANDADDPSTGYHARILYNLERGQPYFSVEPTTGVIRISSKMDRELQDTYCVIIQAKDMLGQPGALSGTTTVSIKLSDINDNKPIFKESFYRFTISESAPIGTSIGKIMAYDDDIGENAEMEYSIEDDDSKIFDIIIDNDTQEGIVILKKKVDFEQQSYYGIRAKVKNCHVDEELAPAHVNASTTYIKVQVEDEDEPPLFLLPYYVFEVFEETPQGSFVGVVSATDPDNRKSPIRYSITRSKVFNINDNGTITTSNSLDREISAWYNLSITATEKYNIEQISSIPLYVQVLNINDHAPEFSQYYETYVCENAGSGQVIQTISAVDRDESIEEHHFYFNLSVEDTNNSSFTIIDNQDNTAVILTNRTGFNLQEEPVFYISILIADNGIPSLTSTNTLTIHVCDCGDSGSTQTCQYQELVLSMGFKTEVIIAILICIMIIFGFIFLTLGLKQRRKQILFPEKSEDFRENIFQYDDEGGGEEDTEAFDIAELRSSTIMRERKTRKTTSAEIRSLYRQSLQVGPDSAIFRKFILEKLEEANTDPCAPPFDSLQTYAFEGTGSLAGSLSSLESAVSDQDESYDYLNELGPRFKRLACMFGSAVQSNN

T3: muCDH19(44-139)::huCDH19(142-249):muCDH19(248-770) (human/mouse chimera)
T3 construct: also called Hu EC2
T3 chain: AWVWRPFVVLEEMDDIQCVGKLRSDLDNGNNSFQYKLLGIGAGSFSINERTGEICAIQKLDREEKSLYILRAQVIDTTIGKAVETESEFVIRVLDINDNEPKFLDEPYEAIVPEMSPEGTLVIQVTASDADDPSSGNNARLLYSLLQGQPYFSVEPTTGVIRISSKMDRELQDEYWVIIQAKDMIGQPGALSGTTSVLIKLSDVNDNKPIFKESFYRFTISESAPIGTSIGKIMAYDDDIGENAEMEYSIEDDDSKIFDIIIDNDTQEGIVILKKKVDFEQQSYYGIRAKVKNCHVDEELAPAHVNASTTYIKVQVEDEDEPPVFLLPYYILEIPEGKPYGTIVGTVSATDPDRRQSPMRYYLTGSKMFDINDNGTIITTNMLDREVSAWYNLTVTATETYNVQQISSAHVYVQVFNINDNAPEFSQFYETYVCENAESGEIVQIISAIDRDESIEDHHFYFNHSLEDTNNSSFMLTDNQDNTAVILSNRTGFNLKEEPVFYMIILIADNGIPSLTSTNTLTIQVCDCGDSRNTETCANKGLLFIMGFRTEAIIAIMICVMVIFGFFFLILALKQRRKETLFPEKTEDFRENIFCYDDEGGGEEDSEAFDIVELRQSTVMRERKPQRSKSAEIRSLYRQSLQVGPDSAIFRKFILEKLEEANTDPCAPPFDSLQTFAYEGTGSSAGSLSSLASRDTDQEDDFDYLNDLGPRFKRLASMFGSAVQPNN

T4: muCDH19(44-770) (mouse)
T4 construct: also called Mu EC1-5
T4 chain: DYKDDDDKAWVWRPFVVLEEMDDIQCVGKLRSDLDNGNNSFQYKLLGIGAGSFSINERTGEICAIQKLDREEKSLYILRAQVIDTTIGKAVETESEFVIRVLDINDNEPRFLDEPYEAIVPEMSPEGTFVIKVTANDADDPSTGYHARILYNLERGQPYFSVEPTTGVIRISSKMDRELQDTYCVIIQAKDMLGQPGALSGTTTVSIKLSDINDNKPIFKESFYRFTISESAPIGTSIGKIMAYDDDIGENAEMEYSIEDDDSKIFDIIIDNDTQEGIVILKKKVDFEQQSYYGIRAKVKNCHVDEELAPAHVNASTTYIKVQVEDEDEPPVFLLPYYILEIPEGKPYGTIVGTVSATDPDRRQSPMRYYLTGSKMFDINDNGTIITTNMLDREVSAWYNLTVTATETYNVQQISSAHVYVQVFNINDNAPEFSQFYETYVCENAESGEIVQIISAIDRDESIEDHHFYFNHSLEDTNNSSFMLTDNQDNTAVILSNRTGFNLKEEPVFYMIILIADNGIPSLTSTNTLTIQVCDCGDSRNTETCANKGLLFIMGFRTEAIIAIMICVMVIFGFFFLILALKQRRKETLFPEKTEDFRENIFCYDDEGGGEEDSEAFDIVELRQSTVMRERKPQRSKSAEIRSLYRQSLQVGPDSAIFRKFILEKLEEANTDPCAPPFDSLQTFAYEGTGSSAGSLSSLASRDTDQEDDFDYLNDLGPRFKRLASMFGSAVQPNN


Tests used:
Test in all cases: flow cytometry, transfected 293T cells
[1] = biological target: T5, huCDH19(44-141)::muCDH19(140-770) (human/mouse chimera)
T5 construct: also called Hu EC1

[2] = biological target: T6, huCDH19(44-249)::muCDH19(248-770) (human/mouse chimera)
T6 construct: also called Hu EC1-2

[3] = biological target: T7, muCDH19(44-139)::huCDH19(142-364)::muCDH19(363-770) (human/mouse chimera)
T7 construct: also called Hu EC2-3

[4] = biological target: T8, muCDH19(44-247)::huCDH19(250-364)::muCDH19(363-770) (human/mouse chimera)
T8 construct: also called Hu EC3

[5] = biological target: T1, muCDH19(44-461)::huCDH19(464-772)
[6] = biological target: T2, muCDH19(44-362)::huCDH19(365-772)
[7] = biological target: T3, muCDH19(44-139)::huCDH19(142-249):muCDH1 …
muCDH19(44-770) = biological target: T4, muCDH19(44-770)
huCDH19(44-772) = biological target: T9, huCDH19(44-772) (human, UniProt Q9H159 44-772)
T9 construct: also called Hu EC1-5

binding result [1]	binding result [2]	binding result [3]	binding result [4]	binding result [5]	binding result [6]	binding result [7]	binding result (muCDH19(44-770))	binding result (huCDH19(44-772))	Binder
binds	binds								anti-CDH19 antibody 13589 (clone 4A9) (antibody, human IgG1, lambda, V domains shown, fully human XenoMouse monoclonal antibody; bin 1; also called Alexa647-labelled 4A9) VH: QVQLQESGPGLVKPSETLSLTCTVSGGSISGYYWSWIRQPPGKGLEWFAYFSYSGSTNYNPSLKSRVTLSVDTSKNQFSLKLSSVTAADTAVYYCARNWAFHFDFWGQGTLVTVSS VL: QSVLTQPPSVSGAPGQRVTISCTGSSSNIGTGYAVHWYQQFPGTAPKLLIYGNNNRPSGVPDRFSGSKSGTSASLAITGLQAEDEADYYCQSYDSRLSGWVFGGGTKLTVLG
		binds	binds						anti-CDH19 antibody 13590 (clone 4B10) (antibody, V domains shown, fully human XenoMouse monoclonal antibody; bin 4) VH: QVQLVESGGGVVQPGRSLRLSCAASGFTFSSYDMHWVRQAPGKGLEWVAVISYDGTNEYYADSVKGRFTISRDTSKNTLYLQMNSLRAEDTAVYYCARERYFDWSFDYWGQGTLVSVSS VL: EIVLTQSPGTLSLSPGERATLSCRASQSVSNTYLAWYHQRPGQAPRLLIYGASSRATGIPDRFSGSGSGTDFALTISSLEPEDFAVYYCQQYSNSWTFGQGTKVEIKR
binds	binds								anti-CDH19 antibody 13880 (clone 25F8) (antibody, human IgG1, lambda, V domains shown, fully human XenoMouse monoclonal antibody; bin 2) VH: QVQLVQSGAEVKKPGASVKVSCKASGYTFTSYYIHWVRQAPGQGLEWMGIINPSGGSTRYAQKFQGRVTMTRDTSTSTVFMELSSLRSEDTAVYYCARGGIQLWLHFDYWGQGTLVTVSS VL: not shown
binds	binds								anti-CDH19 antibody 13882 (clone 26D1) (antibody, human IgG1, lambda, V domains shown, fully human XenoMouse monoclonal antibody; bin 2) VH: QVQLVQSGAEVKKPGASVKVSCKASRYTFTSYYMSWVRQAPGQGLEWMGIIHPSGGDTTYAQKFQGRVTMTGDTSTSTVYMELSSLRSEDTAVYYCARGGIKLWLHFDYWGQGTLVTVSS VL: not shown
binds	binds	binds	binds	binds	binds	binds			anti-CDH19 antibody 14039 (antibody, human IgG1, lambda, V domains shown) VH: QVQLVESGGGVVQPGGSLRLSCAASGFTFSSYGMHWVRQAPGKGLEWVAFIWYEGSNKYYAESVKDRFTISRDNSKNTLYLQMNSLRAEDTAVYYCARRAGIIGTIGYYYGMDVWGQGTTVTVSS VL: SYELTQPPSVSVSPGQTASITCSGDRLGEKYTSWYQQRPGQSPLLVIYQDTKRPSGIPERFSGSNSGNTATLTISGTQAMDEADYYCQAWESSTVVFGGGTKLTVLG
binds	binds	binds	binds	binds	binds	binds	binds	binds	anti-CDH19 antibody 14304 (antibody, V domains shown) VH: QVQLVESGGGVVQPGGSLRLSCAASGFTFSSYGMHWVRQAPGKGLEWVAFIWYDGSNKYYADSVKDRFTISRDNSKNTLYLQMKSLRAEDTAVYYCARRAGIIGTIGYYYGMDVWGQGTTVTVSS VL: SYELTQPPSVSVSPGQTASITCSGDRLGEKYVSWYQQKPGQSPILVIYQDNKWPSGIPERFSGSNSGNTATLTISGTQAMDEADYYCQAWDSSTVVFGGGTKLTVLG

Source: patent US20240010724A1 (Amgen, published 2024)
